The text below walks through data of publication PMC4240730.

The target in assay [1] is basigin (Homo sapiens) (UniProt P35613). Particulars: cited from earlier work.
Assay [2] addresses basigin (immunoglobulin domains 1 and 2 of the short isoform, residues 22-205) (UniProt P35613). In words: AUC.
Assay [3] has the same target. As to the kind of experiment: SPR. For orientation: SPR reads the build-up and loss of mass on a sensor chip optically.

The Kd is the concentration at which binding is half-saturated. For the substance PfRH5 (from UniProt Q8IFM5), the Kd in assay [1] is 1100 nM.
What is called stoichiometry N is the number of molecules, sites or subunits per partner or assembly. “PfRH5ΔN (residues K140-Q526) (from UniProt Q8IFM5 140-526) (domain or fragment)”: in assay [2], the stoichiometry N is 1.
Consider “PfRH5ΔNL (from UniProt Q8IFM5 140-526) (domain or fragment)”, for which the Kd in assay [3] was determined as 1300 nM.
